Laboratory results published in patent publication US20240076389A1 (NATIONAL RESEARCH COUNCIL OF CANADA, published 2024).

T1: mouse AXL extracellular domain (Sino cat. 51026-M08H) (mouse, UniProt Q00993 19-445)
T1 construct: extracellular domain; Bought protein; also called mouse AXL ECD
T1 sequence (looked up): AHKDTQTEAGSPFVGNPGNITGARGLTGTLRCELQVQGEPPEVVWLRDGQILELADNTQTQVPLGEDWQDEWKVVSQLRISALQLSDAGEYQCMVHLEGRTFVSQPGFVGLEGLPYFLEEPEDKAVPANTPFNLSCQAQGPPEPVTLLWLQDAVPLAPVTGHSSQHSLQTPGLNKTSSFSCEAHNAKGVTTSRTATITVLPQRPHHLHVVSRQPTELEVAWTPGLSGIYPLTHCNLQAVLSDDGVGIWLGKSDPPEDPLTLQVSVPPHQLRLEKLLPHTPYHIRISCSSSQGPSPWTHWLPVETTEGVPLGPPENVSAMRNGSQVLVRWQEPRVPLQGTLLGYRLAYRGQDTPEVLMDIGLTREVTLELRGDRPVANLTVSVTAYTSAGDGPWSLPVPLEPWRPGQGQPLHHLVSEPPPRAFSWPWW

T2: human AXL expressed on the cell surface of tumor cell lines (human, UniProt P30530 26-894)
T2 construct: whole, on cells; also called cell surface-expressed AXL; cell-based AXL
T2 sequence (looked up): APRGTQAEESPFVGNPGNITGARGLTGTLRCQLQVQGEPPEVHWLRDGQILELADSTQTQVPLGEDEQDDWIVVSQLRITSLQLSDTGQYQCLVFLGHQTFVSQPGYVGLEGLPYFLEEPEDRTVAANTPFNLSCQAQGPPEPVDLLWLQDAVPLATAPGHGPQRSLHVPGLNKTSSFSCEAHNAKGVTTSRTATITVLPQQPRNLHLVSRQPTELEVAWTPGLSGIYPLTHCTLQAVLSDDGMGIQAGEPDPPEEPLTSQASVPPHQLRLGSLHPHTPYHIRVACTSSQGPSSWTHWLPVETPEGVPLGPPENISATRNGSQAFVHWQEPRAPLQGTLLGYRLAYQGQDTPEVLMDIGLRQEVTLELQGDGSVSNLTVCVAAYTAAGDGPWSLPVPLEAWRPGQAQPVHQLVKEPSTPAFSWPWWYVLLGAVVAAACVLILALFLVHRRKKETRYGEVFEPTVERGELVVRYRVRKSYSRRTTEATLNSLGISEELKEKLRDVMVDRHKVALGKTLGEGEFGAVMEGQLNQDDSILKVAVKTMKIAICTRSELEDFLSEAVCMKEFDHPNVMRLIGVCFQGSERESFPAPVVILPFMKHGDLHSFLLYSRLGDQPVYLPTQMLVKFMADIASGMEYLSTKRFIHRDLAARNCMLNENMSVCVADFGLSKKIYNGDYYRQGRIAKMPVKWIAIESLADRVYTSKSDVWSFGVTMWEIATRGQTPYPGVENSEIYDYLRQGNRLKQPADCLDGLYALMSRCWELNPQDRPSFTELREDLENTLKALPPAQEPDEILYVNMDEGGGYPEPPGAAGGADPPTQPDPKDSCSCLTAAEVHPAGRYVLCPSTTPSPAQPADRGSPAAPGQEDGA

T3: recombinant human AXL extracellular domain, C-terminally His8-tagged (rhAXL-ECD) (human, UniProt P30530 26-451)
T3 construct: Made in CHO cells; also called (rh)AXL-ECD His8; human AXL ECD
T3 sequence: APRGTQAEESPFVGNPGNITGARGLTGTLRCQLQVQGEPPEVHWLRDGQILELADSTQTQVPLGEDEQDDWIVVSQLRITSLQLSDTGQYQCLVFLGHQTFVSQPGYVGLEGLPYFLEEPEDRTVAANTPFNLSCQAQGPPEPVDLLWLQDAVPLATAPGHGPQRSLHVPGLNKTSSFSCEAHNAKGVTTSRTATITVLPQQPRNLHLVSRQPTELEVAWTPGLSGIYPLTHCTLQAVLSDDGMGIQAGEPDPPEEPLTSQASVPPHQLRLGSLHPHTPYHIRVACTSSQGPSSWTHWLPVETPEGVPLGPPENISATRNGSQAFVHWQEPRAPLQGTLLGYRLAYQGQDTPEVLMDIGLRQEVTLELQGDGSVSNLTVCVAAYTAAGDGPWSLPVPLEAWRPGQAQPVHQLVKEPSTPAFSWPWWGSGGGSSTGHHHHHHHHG


Experiments:
[1] = target: T1, mouse AXL extracellular domain (Sino …); assay: ELISA on coated mouse AXL ECD (100 ng/well), VHH-Fc
Description: (§1) ELISA. ELISAs against human, cyno and mouse AXL ECDs were conducted by immobilizing 100 ng of each protein in wells of Nunc MaxiSorp microplates overnight. Human AXL (aa 1-451) and cyno AXL (aa 1-449) were produced recombinantly as described in Example 10. Mouse AXL was purchased from Sino (cat. 51026-M08H). The next day, plates were blocked with 5% (w/v) dried milk in PBS. Murine mAbs (either hybridoma- or recombinantly-produced) or VHH-Fcs were diluted in PBS containing 1% BSA and 0.1% Tween-20 and added to wells for 2 hours at room temperature. Wells were washed 5× with PBS containing 0.1% Tween-20, then HRP-labeled protein A (diluted 1:1000 in PBS containing 1% BSA and 0.1% Tween™-20) was added to wells for 1 hour at room temperature. Wells were washed again 5× with PBS/0.1% Tween-20 and developed using TMB substrate. Absorbance was measured at 450 nm. As a positive control for mouse AXL binding, a commercial anti-mouse AXL mAb (clone 175128, R&D Systems MAB8541, rat IgG2A) was used and detected with donkey […] secondary antibody.

[2] = target: T2, human AXL expressed on the cell surface …; assay: FACS on SKOV3 cells, apparent Kd, human Fc format
Description: (§2) FACS binding assay. Adherent cells were dissociated with non-enzymatic Sigma Cell Dissociation Solution (Cat. No. C5789). Cells suspensions were added to polypropylene, V-bottom 96-well plates and incubated for 2 hours on ice with primary antibodies at concentrations ranging from 100 nM to 0.001 nM or at a single dose of 100 nM (for the non-specific control). After incubation and washes, cells were incubated with fluorescently labeled secondary antibody (Alexa Fluor® 488 anti-human IgG from Jackson Cat. No 709-546-098) for 1 hour on ice, then washed. Cell viability was determined using Fixable viability dye 450 (20 min on ice). Stained cells were fixed in 1% formaldehyde at 4° C. and stored at 4° C. until acquisition which was performed the next day.
(§3) Binding of recombinant chimeric Abs to three cell lines was assessed by FACS as described above. The apparent Bmax and Kd determination is shown below in Table 14.

[3] = target: T2, human AXL expressed on the cell surface …; assay: FACS on MDA-MB-231 luciferase cells, apparent Kd, human Fc format
Description: as §2, §3

[4] = target: T4, recombinant cynomolgus AXL extracellular domain (cynomolgus); assay: SPR, VHH-Fc captured, AXL ECD flowed, single-concentration kinetics (estimate)
T4 construct: range 1-449; also called Cyno AXL; cyno AXL ECD
Description: (§4) For VH Hs and VHH-Fcs, binding to human and cynomolgus AXL ECD was assessed using either a Biacore T200 instrument or a Biacore 3000 instrument. Either human AXL ECD or anti-human Fc antibody was immobilized on a research-grade CM5 series S sensor chip (T200, rhAXL ECD) or a C1 sensor chip (3000, anti-human Fc) using amine coupling in acetate buffer. VHH-Fcs were captured on anti-human Fc surfaces. Either monomeric VHHs (for rhAXL ECD surfaces) or human and cyno AXL ECD (for VHH-Fc surfaces) were flowed over the surfaces at different concentration ranges. Running buffers were HBS-EP (3000) and HBS-EP+(T200). Flow rates were 10-40 ul/min. All binding studies were performed at 25° C. Surfaces were regenerated using 10 mM glycine, pH 1.5.

[5] = target: T3, recombinant human AXL extracellular …; assay: as above
Description: as §4

[6] = target: T3, recombinant human AXL extracellular …; assay: ELISA on coated AXL ECD (100 ng/well), VHH-Fc, HRP-protein A
Description: as §1

[7] = target: T2, human AXL expressed on the cell surface …; assay: FACS on NCI-H292 cells, apparent Kd, human Fc format
Description: as §2, §3

[8] = target: T3, recombinant human AXL extracellular …; assay: ELISA on coated AXL ECD (100 ng/well), HRP-protein A
Description: as §1

[9] = target: T1, mouse AXL extracellular domain (Sino …); assay: ELISA on coated mouse AXL ECD (100 ng/well)
Description: as §1

[10] = target: T4, recombinant cynomolgus AXL …; assay: SPR Biacore T200, mAb captured on anti-Fc, AXL ECD flowed, multi-cycle kinetics
Description: (§5) Surface plasmon resonance. For murine mAbs, binding to human and cynomolgus AXL ECD was assessed using a Biacore T200 instrument. Briefly, either anti-mouse or anti-human Fc antibody was immobilized on a research-grade CM5 series S sensor chip using amine coupling in acetate buffer. Murine or recombinant chimeric murine-human mAbs (mouse VH/VL; human constant regions) were captured, then recombinant human or cyno AXL ECD was flowed over the surface at different concentration ranges (0.1-500 nM) depending on the antibody. The running buffer was PBS/Tween-20 and the flow rate 100 uL/min. All binding studies were performed at 25° C. Surfaces were regenerated using 10 mM glycine, pH 1.5.

[11] = target: T3, recombinant human AXL extracellular …; assay: as above
Description: as §5

[12] = target: T2, human AXL expressed on the cell surface …; assay: cell-based or functional assay
[13] = target: T2, human AXL expressed on the cell surface …; assay: cell-based or functional assay; remark: listed apart in the source

Binder	binding result [1]	Kd [2]	Kd [3]	Kd [4]	koff [4]	kon [4]	Kd [5]	koff [5]	kon [5]	EC50 [6]	Kd [7]	EC50 [8]	binding result [9]	Kd [11]	koff [11]	kon [11]	other results
NRC-sdAb006-Fc (VHH-human IgG1 Fc fusion) (Fc fusion, VHH fused N-terminally to human IgG1 Fc; also called NRC-sdAb006-hIgG1; not shown: human IgG1 Fc) QVKLEESGGGLVQAGASLRLSCVASESIFGFNTMGWYRQAPGNERELVASISNSKRTMYADSVKGRFTISRDNAKNTVNLQMNNLKPEDTAVYYCRAWGIITSATVYWGQGTQVTVSS	no binding	13.4 nM	0.832 nM	26 nM	0.0026 s⁻¹	100000 M⁻¹ s⁻¹	24 nM	0.0021 s⁻¹	89000 M⁻¹ s⁻¹	1 nM	2.12 nM	–	–	–	–	–	–
mIgG2 F155-3C7 (antibody, V domains shown, Printed as mIgG2 (mouse IgG2)) VH: QVQLQQPGTELVKPGASVKLSCKASGYIFTNFWINWVKQRPGQGLEWIGNIFPGSNSSNYNEKFKNKATLTVDKSSSTAYMHLSSLTSEDSAVYYCVRDYYGGSPDYWGQGTTLTVSS VL: DIVMSQSPSSLAVSAGEKVTMSCKSSQSLLNSKTRKNYLAWYQQKPGQSPKLLIYWASTRESGVPARFTGSGSGTDFTLTISSVQAEDLAIYYCKHSYNLWTFGGGTKLEIR	–	–	–	–	–	–	–	–	–	–	–	14 nM	no binding	3 nM	0.0018 s⁻¹	560000 M⁻¹ s⁻¹	Kd [10]: 25 nM; koff [10]: 0.0073 s⁻¹; kon [10]: 290000 M⁻¹ s⁻¹
NRC-sdAb005-Fc (VHH-human IgG1 Fc fusion) (Fc fusion, VHH fused N-terminally to human IgG1 Fc; also called NRC-sdAb005-hIgG1; not shown: human IgG1 Fc) QVKLEESGGGLAQAGGSLRLSCAASGSISSINTIGWFRQAPGKQRELVAASDSGANRNYADSVKGRFTISRDNAKNTVYLQMNNLKPEDTAIYYCRAWGTGTISTMYWGQGTQVTVSS	no binding	2.03 nM	1.47 nM	35 nM	0.0046 s⁻¹	130000 M⁻¹ s⁻¹	34 nM	0.0041 s⁻¹	120000 M⁻¹ s⁻¹	1 nM	1.47 nM	–	–	–	–	–	–
mIgG2 F149-4G4 (antibody, V domains shown, Printed as mIgG2 (mouse IgG2)) VH: QIQLVQSGPELKKPGETVKISCKTSGYTFTYYGINWVKQAPGKGLEWMGWINTYLGEPTYADDFKGRFAFSLETSASTAYLQINNLRDEDMATYFCTRGTMSYSFDYWGQGTALTVSS VL: QNVLTQSPAIMSASPGEEVTMTCRASSSVSSSYLHWYQQKSGASPKLWIYSTSKLASGVPARFSGSGSGTSYSLTISSVEAEDAATYYCHQYSGDPLTFGSGTKLEVK	–	–	–	–	–	–	–	–	–	–	–	15 nM	no binding	1 nM	0.0012 s⁻¹	750000 M⁻¹ s⁻¹	–
hFc-F111-5E9-DM1 (antibody, human IgG1, kappa, V domains shown, DM1 through SMCC linker on lysine residues; sites not given) VH: QIQLVQSGPELKKPGETVKISCKASGYTFTKYGMNWVKQAPGKGLKWMGWINTYTGEPTYADDFKGRFAFSLETSASTAYLQINNLTTEDMVTYFCAKGGYYSNPIYPMDYWGQGTSVTVSS VL: DIQMTQTTSSLSASLGDRVTISCRASQDINNYLNWYQQKPDGTVKLLIYYISRLHSGVPSRFSGSGSGTDYSLTISNLELEDVATYFCQQGNTLPFTFGSGTKLEIKR	–	–	–	–	–	–	–	–	–	–	–	–	–	–	–	–	IC50 (read off the curve), growth inhibition of H292 cells, with added Gas6 (squares) [12]: ~0.04 nM; IC50 (read off the curve), growth inhibition of H292 cells, without added Gas6 (circles) [12]: ~0.04 nM; IC50 of growth inhibition (CellTiterGlo, 5 days) of NCI-H292 cells, -Gas6 [13]: 0.084 nM; IC50 of growth inhibition of NCI-H292 cells, +Gas6 (2 µg/mL) [13]: 0.074 nM
